Assay results reported in patent US7968297B2, “Method for identification, isolation and production of antigens to a specific pathogen” (Intercell AG, priority 2001, dated 2011).

molecular target: T1, DRA1*0101/DRB1*0401 (Homo sapiens, UniProt P01903+P01911, A100K/A169T/F76Y/I96L/K127E/L162R/M171V/N62H/P40V/Q125Y/R42H/S133A/S149N/S66Y/V115G/V209L/W38E); experiment: Competition assay with soluble HLA class II molecules; design: key: +, + +: binding; +, + +: binding; −: no competition up to 200 μM test peptide; conditions: binding to soluble DRA1*0101/DRB1*0401 molecules
T1 construct: using recombinant soluble versions of HLA class II molecules; made in house; host or cells: SC-2 cells
Procedure: Binding of peptides to HLA molecules on the surface of antigen-presenting cells is a prerequisite for activation of T cells. Binding was assessed in vitro by two independent biochemical assays using recombinant soluble versions of HLA class II molecules. One assay measures the concentration dependent competitive replacement of a labeled reference peptide by the test peptides. The second assay is based on the formation of SDS-stable complexes upon binding of high- and intermediate affinity ligands.
Soluble HLA molecules (DRA1*0101/DRB1*0101 and DRA1*0101/DRB1*0401) were expressed in SC-2 cells and purified as described in Aichinger et al., 1997. For the competition assay (Hammer et al. 1995) HLA molecules were applied between 50 and 200 ng/well. For DRB1*0101 biotinilated indicator peptide HA (PKYVKQNTLKLAT—SEQ ID NO:602, Valli et al. 1993) was used at 0.008 μM. […] Molecules, indicator and test peptides were incubated overnight at 37° C., pH 7. HLA:peptide complexes obtained after incubation with serial dilutions of test and reference peptides (the known high-affinity binders HA and UD4 were used as positive control) were captured in ELISA plates coated with antibody L243, which is known to recognize a conformational epitope formed only by correctly associated heterodimers. Incorporated biotin was measured by standard colorimetric detection using a streptavidin-alkaline phosphatase conjugate (Dako) with NBT/BCIP tablets (Sigma) as substrate and automated OD reading on a Victor reader (Wallac).

Sequence	binding
QSWWGLYALLGMLALFIPKFRKESK (listed as Staphylococcus aureus) [p871-896]	− (−: no competition up to 200 μM test peptide)
TIFRYVEGKSLYE [p416-428]	− (−: no competition up to 200 μM test peptide)
VIVSTLFLISQHQAQA (VIVSTLFLITSQHQAQA; listed as Staphylococcus aureus) [p24-40]	− (−: no competition up to 200 μM test peptide)
YDYKYFYSYKVVKGVKKYFSFSQS [p275-299]	+
YKVVKGVKKYFSFSQSNGYKIG [p284-305]	+
